T1: His-LRS-(759-1176) (Homo sapiens (Human), UniProt Q9P2J5 759-1176)
T1 construct: not shown: His tag from pET16a vector
T1 sequence: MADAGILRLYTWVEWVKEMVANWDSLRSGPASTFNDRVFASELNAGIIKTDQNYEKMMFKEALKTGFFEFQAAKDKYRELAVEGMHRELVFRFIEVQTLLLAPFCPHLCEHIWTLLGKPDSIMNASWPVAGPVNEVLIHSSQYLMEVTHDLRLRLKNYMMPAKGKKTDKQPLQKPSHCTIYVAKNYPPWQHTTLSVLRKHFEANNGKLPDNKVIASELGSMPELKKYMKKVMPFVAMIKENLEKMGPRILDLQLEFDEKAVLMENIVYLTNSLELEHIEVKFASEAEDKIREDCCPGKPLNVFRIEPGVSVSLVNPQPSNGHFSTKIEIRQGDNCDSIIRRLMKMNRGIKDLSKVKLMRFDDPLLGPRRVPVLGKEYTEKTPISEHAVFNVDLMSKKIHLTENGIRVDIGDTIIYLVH

T2: myc-tagged methionyl-tRNA synthetase (MRS) (UniProt P56192 1-900)
T2 construct: also called myc-tagged MRS; not shown: myc tag
T2 sequence (looked up): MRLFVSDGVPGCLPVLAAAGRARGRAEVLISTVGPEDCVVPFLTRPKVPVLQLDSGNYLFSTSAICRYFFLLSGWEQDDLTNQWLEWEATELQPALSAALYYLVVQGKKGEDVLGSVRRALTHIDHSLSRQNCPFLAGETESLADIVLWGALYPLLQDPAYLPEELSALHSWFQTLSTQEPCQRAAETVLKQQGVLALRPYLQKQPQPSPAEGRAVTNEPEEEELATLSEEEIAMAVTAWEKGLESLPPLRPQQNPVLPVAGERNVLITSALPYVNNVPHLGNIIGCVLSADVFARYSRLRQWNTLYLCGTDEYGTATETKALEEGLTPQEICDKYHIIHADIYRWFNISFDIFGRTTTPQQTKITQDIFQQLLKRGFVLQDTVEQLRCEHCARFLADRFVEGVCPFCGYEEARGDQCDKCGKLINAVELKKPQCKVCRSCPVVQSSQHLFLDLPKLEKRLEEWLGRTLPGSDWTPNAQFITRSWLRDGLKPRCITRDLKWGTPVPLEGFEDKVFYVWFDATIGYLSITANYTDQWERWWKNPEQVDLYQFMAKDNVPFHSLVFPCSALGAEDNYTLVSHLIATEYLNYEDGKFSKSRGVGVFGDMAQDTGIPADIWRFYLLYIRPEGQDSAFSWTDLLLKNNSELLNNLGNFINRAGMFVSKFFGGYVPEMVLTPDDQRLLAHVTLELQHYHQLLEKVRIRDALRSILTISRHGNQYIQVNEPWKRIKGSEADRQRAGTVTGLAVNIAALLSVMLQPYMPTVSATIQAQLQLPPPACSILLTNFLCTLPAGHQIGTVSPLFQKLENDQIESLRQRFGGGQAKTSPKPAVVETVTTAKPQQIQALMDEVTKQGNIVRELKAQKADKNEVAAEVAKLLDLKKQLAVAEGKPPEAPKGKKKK

T3: myc-tagged isoleucyl-tRNA synthetase (IRS) (UniProt P41252 1-1262)
T3 construct: also called myc-tagged IRS; not shown: myc tag
T3 sequence (looked up): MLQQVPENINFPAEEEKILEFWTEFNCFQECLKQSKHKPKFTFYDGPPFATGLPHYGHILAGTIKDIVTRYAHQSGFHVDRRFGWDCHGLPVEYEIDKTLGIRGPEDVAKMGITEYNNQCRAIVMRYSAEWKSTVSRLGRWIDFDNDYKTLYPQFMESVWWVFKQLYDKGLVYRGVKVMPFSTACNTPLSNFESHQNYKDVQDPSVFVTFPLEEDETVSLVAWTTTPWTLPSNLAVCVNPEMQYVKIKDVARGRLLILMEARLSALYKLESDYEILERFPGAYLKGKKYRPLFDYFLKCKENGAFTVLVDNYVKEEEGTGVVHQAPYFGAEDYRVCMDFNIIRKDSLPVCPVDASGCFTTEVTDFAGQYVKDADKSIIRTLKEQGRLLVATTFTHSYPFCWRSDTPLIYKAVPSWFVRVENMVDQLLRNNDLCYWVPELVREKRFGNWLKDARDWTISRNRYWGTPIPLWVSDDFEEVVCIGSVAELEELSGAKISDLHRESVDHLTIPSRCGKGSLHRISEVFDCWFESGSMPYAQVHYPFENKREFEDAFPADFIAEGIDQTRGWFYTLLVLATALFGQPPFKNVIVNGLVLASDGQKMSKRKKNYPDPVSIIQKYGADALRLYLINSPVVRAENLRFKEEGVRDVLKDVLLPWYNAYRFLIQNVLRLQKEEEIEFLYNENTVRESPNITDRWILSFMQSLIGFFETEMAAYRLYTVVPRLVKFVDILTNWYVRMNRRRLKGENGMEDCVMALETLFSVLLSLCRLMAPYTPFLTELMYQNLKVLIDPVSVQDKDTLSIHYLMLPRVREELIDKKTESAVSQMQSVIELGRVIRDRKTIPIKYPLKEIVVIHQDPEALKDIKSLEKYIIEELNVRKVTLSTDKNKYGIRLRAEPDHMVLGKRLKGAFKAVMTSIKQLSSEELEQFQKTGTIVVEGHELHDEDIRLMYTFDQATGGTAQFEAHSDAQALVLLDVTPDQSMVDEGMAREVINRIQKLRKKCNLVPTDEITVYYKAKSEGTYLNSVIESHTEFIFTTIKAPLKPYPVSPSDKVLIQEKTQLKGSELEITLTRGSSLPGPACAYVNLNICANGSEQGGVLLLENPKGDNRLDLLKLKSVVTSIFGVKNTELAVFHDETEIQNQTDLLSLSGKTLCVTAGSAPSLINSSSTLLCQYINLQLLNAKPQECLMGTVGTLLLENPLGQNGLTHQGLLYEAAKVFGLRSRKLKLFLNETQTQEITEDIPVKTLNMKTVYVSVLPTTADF

B1: GST-LRS fragment 971-1176 (enzyme)
chain: VIASELGSMPELKKYMKKVMPFVAMIKENLEKMGPRILDLQLEFDEKAVLMENIVYLTNSLELEHIEVKFASEAEDKIREDCCPGKPLNVFRIEPGVSVSLVNPQPSNGHFSTKIEIRQGDNCDSIIRRLMKMNRGIKDLSKVKLMRFDDPLLGPRRVPVLGKEYTEKTPISEHAVFNVDLMSKKIHLTENGIRVDIGDTIIYLVH
notes: not shown: glutathione S-transferase (GST) fusion tag
B2: endogenous RagD of 293T cells (enzyme, UniProt Q9NQL2 1-400, looked up)
chain: MSQVLGKPQPQDEDDAEEEEEEDELVGLADYGDGPDSSDADPDSGTEEGVLDFSDPFSTEVKPRILLMGLRRSGKSSIQKVVFHKMSPNETLFLESTNKICREDVSNSSFVNFQIWDFPGQIDFFDPTFDYEMIFRGTGALIFVIDSQDDYMEALARLHLTVTRAYKVNTDINFEVFIHKVDGLSDDHKIETQRDIHQRANDDLADAGLEKIHLSFYLTSIYDHSIFEAFSKVVQKLIPQLPTLENLLNIFISNSGIEKAFLFDVVSKIYIATDSTPVDMQTYELCCDMIDVVIDISCIYGLKEDGAGTPYDKESTAIIKLNNTTVLYLKEVTKFLALVCFVREESFERKGLIDYNFHCFRKAIHEVFEVRMKVVKSRKVQNRLQKKKRATPNGTPRVLL
notes: Endogenous protein in 293T cell lysates, detected with anti-RagD antibody
B3: GST-RagD (RagD-(1-400)) (enzyme, UniProt Q9NQL2 1-400, looked up)
chain: B2 chain
notes: range 1-400; Expressed in E. coli BL21, purified on GSH agarose; also called peptide spanning aa 1-400 of RagD; RagD protein; not shown: glutathione S-transferase (GST) tag from pGEX4T3 vector (GE healthcare)
B4: HA-tagged RagD (enzyme, UniProt Q9NQL2 1-400, looked up)
chain: B2 chain
notes: Expressed in 293T cells, used as cell lysate; also called HA-RagD; not shown: HA tag

How the values were obtained:
HA-tagged RagD = molecular target: B4; assay: in vitro GST pull-down of HA-RagD lysate, anti-HA blot (FIG. 3h)
Description: Binding assay was conducted in 25 mM Tris-HCl buffer (pH7.4) containing 10 mM NaCl, 1 mM MgCl₂, 1 mM EDTA, 0.5 mM EGTA, and 0.5% Triton X-100.

[1] = molecular target: T4, endogenous LRS of 293T cells (Homo sapiens (Human), UniProt Q9P2J5 1-1176); assay: immunoprecipitation of 293T lysates with anti-Raptor antibody, anti-LRS and anti-RagD blots (FIG. 4a)
T4 construct: Endogenous protein in HEK293T cell lysates, detected with anti-LRS antibody
Description: 293T cells were starved for amino acids for 1 hour and re-stimulated with amino acids for 5 min.

His-LRS-(759-1176) = molecular target: T1, His-LRS-(759-1176); assay: ELISA competition: His-LRS-(759-1176) added to GST-RagD on plate-coated His-LRS-(1-1176) (FIG. 13b)
His-LRS-(1-1176) = molecular target: T5, His-LRS-(1-1176) (Homo sapiens (Human), UniProt Q9P2J5 1-1176); assay: ELISA: plate coated with LRS-(1-1176) (500 ng/ml), GST-RagD detected with anti-GST antibody (FIG. 13a)
T5 construct: Expressed in E. coli BL21(DE3), purified on Ni-chelating agarose, coated on the ELISA plate; not shown: His tag from pET16a vector

[2] = molecular target: T2, myc-tagged methionyl-tRNA synthetase …; assay: co-immunoprecipitation with anti-HA antibody, anti-myc blot (FIG. 3c)
Description: (§1) The co-precipitated myc-tagged protein was determined by immunoblotting with anti-myc antibodies.

[3] = molecular target: T3, myc-tagged isoleucyl-tRNA synthetase …; assay: as above
Description: as §1

[4] = molecular target: T6, myc-tagged glutamyl-prolyl-tRNA synthetase (EPRS) (UniProt P07814 1-1512); assay: as above
T6 construct: also called myc-tagged EPRS; not shown: myc tag
Description: as §1

T6 sequence (P07814 whole entry): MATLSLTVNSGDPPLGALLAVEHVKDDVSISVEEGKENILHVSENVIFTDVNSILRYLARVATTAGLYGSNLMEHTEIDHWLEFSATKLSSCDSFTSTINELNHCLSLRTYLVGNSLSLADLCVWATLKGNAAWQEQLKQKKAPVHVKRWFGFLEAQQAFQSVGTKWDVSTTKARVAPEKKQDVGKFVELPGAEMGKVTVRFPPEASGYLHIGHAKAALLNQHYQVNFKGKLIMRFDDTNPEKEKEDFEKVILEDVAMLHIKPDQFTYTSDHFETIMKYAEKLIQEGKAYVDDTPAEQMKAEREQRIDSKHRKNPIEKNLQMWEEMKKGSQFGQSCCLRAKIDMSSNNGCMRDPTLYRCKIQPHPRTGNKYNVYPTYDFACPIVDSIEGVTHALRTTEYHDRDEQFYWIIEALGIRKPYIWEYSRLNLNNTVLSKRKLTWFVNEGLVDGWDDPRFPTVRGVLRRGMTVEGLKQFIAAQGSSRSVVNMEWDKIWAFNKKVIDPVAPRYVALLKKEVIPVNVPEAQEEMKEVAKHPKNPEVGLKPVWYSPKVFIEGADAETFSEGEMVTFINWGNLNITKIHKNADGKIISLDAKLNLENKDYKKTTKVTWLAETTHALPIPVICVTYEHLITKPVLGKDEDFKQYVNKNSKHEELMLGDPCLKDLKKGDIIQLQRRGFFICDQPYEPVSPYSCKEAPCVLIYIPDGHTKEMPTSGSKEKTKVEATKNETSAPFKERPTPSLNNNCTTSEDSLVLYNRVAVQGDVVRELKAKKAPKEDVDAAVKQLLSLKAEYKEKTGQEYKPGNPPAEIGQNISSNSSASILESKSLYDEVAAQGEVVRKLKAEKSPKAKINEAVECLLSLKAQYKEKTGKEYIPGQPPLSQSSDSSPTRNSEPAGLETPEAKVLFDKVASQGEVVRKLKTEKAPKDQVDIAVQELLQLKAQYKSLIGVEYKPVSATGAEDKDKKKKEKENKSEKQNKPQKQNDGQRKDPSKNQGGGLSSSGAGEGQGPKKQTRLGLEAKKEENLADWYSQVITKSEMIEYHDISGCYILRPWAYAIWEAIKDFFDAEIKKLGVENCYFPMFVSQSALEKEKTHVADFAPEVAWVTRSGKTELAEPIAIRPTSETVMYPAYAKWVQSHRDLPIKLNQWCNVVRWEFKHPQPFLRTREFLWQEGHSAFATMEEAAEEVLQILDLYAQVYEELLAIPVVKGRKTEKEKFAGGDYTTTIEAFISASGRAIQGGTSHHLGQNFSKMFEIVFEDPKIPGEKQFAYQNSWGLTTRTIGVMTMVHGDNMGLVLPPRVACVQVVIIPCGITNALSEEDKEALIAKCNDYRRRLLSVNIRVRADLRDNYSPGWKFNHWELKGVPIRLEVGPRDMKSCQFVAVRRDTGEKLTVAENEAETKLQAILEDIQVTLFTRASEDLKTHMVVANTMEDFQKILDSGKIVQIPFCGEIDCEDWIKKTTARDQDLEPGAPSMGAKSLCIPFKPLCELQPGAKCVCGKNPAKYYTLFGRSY

Binder: B1
- binding result (HA-tagged RagD): no binding

Binder: B2
- binding result [1]: binds

Binder: B3
- binding result (His-LRS-(759-1176)): binds
- binding result (His-LRS-(1-1176)): binds

Binder: B4
- binding result [2]: no binding
- binding result [3]: no binding
- binding result [4]: no binding

Source: US20140249045A1 (MEDICINAL BIOCONVERGENCE RESEARCH CENTER, published 2014)
